Laboratory results as given in US20250051428A1 (UNIVERSITY OF BRITISH COLUMBIA, published 2025).

T1: cyclo(CGHHQKG) conjugated to BSA (also: conjugated to BSA, site not given here)
T1 construct: also called Cyclic Peptide; cyclopeptide
T1 peptide: cyclo(CGHHQKG)

B1: 301-17 (hybridoma-purified IgG3) (antibody, V domains shown)
VH: QVQLQQPGAELVKPGASVKMSCKASGYSFTSYWINWVKQRPGQGLEWIGDVHPGRGVSTYNAKFKSKATLTLDTSSSTAYMQLSSLTSEDSAVYYCSRSHGNTYWFFDVWGAGTTVTVSS
VL: DVLMTQTPLSLPVSLGDQASISCRSSQSIVHSNGNTYLEWYLQKPGQSPKLLIYKVSNRFSGVPDRFSGSGSGTDFTLKISRVEAEDLGVYYCFQGSHVPFTFGSGTKLEIK
notes: Mouse hybridoma monoclonal, IgG3
B2: Recombinant 301-17 IgG2a (antibody)
heavy: QVQLQQPGAELVKPGASVKMSCKASGYSFTSYWINWVKQRPGQGLEWIGDVHPGRGVSTYNAKFKSKATLTLDTSSSTAYMQLSSLTSEDSAVYYCSRSHGNTYWFFDVWGAGTTVTVSSAKTTAPSVYPLAPVCGDTTGSSVTLGCLVKGYFPEPVTLTWNSGSLSSGVHTFPAVLQSDLYTLSSSVTVTSSTWPSQSITCNVAHPASSTKVDKKIEPRGPTIKPCPPCKCPAPNLLGGPSVFIFPPKIKDVLMISLSPIVTCVVVDVSEDDPDVQISWFVNNVEVHTAQTQTHREDYNSTLRVVSALPIQHQDWMSGKEFKCKVNNKDLPAPIERTISKPKGSVRAPQVYVLPPPEEEMTKKQVTLTCMVTDFMPEDIYVEWTNNGKTELNYKNTEPVLDSDGSYFMYSKLRVEKKNWVERNSYSCSVVHEGLHNHHTTKSFSRTPGK
light: DVLMTQTPLSLPVSLGDQASISCRSSQSIVHSNGNTYLEWYLQKPGQSPKLLIYKVSNRFSGVPDRFSGSGSGTDFTLKISRVEAEDLGVYYCFQGSHVPFTFGSGTKLEIKRADAAPTVSIFPPSSEQLTSGGASVVCFLNNFYPKDINVKWKIDGSERQNGVLNSWTDQDSKDSTYSMSSTLTLTKDEYERHNSYTCEATHKTSTSPIVKSFNRNEC

Assays:
[1] = biological target: T2, commercially-prepared stable A-beta42 Oligomers (SynAging SAS) (human); assay: ProteOn biosensor, antibody captured with anti-mouse IgG or amine-coupled on GLM chip, AbO 12.3 nM to 1 µM; hybridoma-purified antibody
T2 construct: Bought oligomer preparation; also called AbO; SynAging AbO
Description: (§1) AbO 3 fold-dilutions were used: 1 μM, 0.33 μM, 0.11 μM, 37 nM, 12.3 nM. Assay buffer was PBS-E+Tween 20+2 mg/ml BSA.

[2] = biological target: T1, cyclo(CGHHQKG) conjugated to BSA; assay: ProteOn biosensor, antibody amine-coupled to GLH chip, cyclo-BSA 111 pM to 9 nM
Description: Cyclo-BSA 3-fold dilutions were used from 9 nM to 111 pM. Assay buffer was PBS-E+0.05% Tween+10 mg/ml BSA.

[3] = biological target: T2, commercially-prepared stable A-beta42 …; assay: ProteOn biosensor, antibody captured with anti-mouse IgG or amine-coupled on GLM chip, AbO 12.3 nM to 1 µM; lower end of the printed range 16.2-19.5 nM; test or coupling not stated
Description: as §1

[4] = biological target: T2, commercially-prepared stable A-beta42 …; assay: ProteOn biosensor, antibody captured with anti-mouse IgG or amine-coupled on GLM chip, AbO 12.3 nM to 1 µM; upper end of the printed range 16.2-19.5 nM; test or coupling not stated
Description: as §1

T2 sequence (peptide, as listed by the source): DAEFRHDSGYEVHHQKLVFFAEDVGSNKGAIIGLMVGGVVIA

Binder	Kd [1] [nM]	Kd [2] [nM]	Kd [3] [nM]	Kd [4] [nM]
B1	~26.9			
B2		~0.017	16.2 to 19.5	16.2 to 19.5
